Ends that are not written are not given here. GalNAc = N-acetylgalactosamine O-linked to a serine or threonine side chain
B1: 3C7.2C11.1C9 (antibody, V domains shown)
VH: EVKLEESGGGLVQPGGSMKVSCGASGFTFSDAWMDWVRQSPEKGLEWVAEMRSKAFNHAIYYAESVKGRFTISRDDSKSRVYLQMNLLRPEDTGIYYCTPNWDEGFAYWGQGTLVTVSA
VL: DVMLTQTPLSLPVSLGDQASISCRSSQSLVHSNGNTYLHWYLQKPGQSPKLLINKVSNRFFGVPDRFSGSGSGTDFTLKISRVEAEDLGVYFCSQSTHVPRTFGGGTKLEIK
notes: Mouse monoclonal antibody from a hybridoma (Balb/c mice immunised with KLH-LAMP1-Tn glycopeptide)
B2: mAb237 (antibody, V domains shown)
VH: QVQLQQSGGGLVQPGGSMKIFCAASGFTFSDAWMDWVRQSPEKGLEWVAEIRNKANNHETYYAESVKGRFTITRDDSKSRMSLQMNSLRAEDTGIYYCSGGKVRNAYWGQGTTVTVSS
VL: DIQLTQTPLSLPVSLGDQASISCRSSQSLVHSVGNTYLHWYLQKPGQSPKLLIYKVSNRFSGVPDRFSGSGSGTDFTLKISSVEAEDLGVYFCSQSTHVPTFGGGTKLEIK
notes: Recombinant mouse antibody bought from Creative Biolabs (Brooks et al., 2010), specific for the podoplanin Tn glycopeptide; also called wild type mAb237

Tests used:
[1] = molecular target: T1, LAMP1-Tn peptide Biotin-CEQDRPSPTTAPPAPPSPSP (human, N-terminal biotin; O-linked GalNAc on the serine at position 7 and the threonines at positions 9 and 10); assay: BLI (Octet), peptide on biosensor, apparent affinity (Example 3)
T1 construct: Synthetic 20-mer glycopeptide made by FMOC synthesis; also called LAMP1 glycopeptide; glycosylated LAMP1 peptide
T1 peptide: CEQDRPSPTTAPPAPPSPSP
Experimental: (§1) Antibody affinity and epitope binning of monoclonal antibodies can be assessed against specific antigens using BLI. […] The affinity is determined by fitting the binding curve to a specific model: a 1:1 monovalent model or a 2:1 bivalent model. The error (>95% confidence) is calculated by how close the generated curve matches the model.
(§2) To characterize the cross-reactivity between mAb237 the anti-glyco-LAMP1 antibodies 3C7, 13C3, and 13G2, the affinities of mAb237, 3C7, 13C3, and 13G2 against the glycosylated LAMP1 peptide, the unglycosylated LAMP1 peptide, and the podoplanin glycopeptide were determined by Octet. Table 8 summarizes the dissociation constants (Kd) for mAb237, 3C7, 13C3, and 13G2 against the glycosylated LAMP1 peptide, the unglycosylated LAMP1 peptide, and the podoplanin glycopeptide. No cross reactivity was observed despite the sequence similarities observed between mAb237 and 3C7, 13C3, and 13G2.

[2] = molecular target: T2, LAMP1-Tn (T1) peptide Biotin-CEQDRPSPTTAPPAPPSPSP (human, N-terminal biotin; GalNAc on one threonine (label 'T1'). By the order of items in paragraph 452 and paragraph 453 this is the threonine at position 9); assay: BLI (Octet), peptide on biosensor, apparent affinity
T2 construct: Singly glycosylated form of the LAMP1 20-mer
T2 peptide: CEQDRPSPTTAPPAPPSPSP

[3] = molecular target: T1, LAMP1-Tn peptide …; assay: as above
[4] = molecular target: T1, LAMP1-Tn peptide …; assay: SPR (Biacore), antibody immobilised, peptide as analyte
Experimental: Antibody affinity assays can be carried out using surface plasmon resonance (e.g., using a Biacore system (Cytiva)). […] The affinity is determined by fitting the binding curve to a specific model: kinetic fit (1:1 model) or if applicable heterogenous ligand binding model.
To characterize the binding specificities of 3C7, 13C3, and 13G2 for non-glycosylated and Tn-glycosylated LAMP1, flow cytometry analysis of the LAMP1 mouse antibodies on T47D COSMC-KO cells was performed. […] The affinities of 3C7, 13C3, and 13G2 against the LAMP1 glycopeptides were determined by Biacore and Octet. Table 7 summarizes dissociation constants (Kd) for 3C7, 13C3, and 13G2 against different glycoforms of LAMP1 peptide, as well as unglycosylated LAMP1 and MUC1-Tn.

[5] = molecular target: T3, podoplanin glycopeptide ERGTKPPLEELSGK; assay: BLI (Octet), peptide on biosensor, apparent affinity (Example 3)
T3 construct: also called PDPN glycopeptide; Tn antigen derived from podoplanin
T3 peptide: ERGT(GalNAc)KPPLEELSGK
Experimental: as §1, §2

Row | Binder | Kd [1] | Kd [2] | Kd [3] | Kd [4] | Kd [5]
1 | B1 | 13.9 nM | 810 nM | 18.2 nM | 28.7 nM | 
2 | B2 |  |  |  |  | 1.53 nM
